According to the nanobody polyreactivity screen of Harvey et al. (2022):

Assay: yeast display, Sf9 membrane polyspecificity reagent, FACS + sequencing; frameworks hold sequencing errors
Method in brief: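 Nanobodies came from a synthetic yeast display library in Saccharomyces cerevisiae BJ5465, induced with galactose for 36–48 hours and stained for 1 hour at 4 °C with 10% biotinylated, detergent-solubilized Sf9 membrane reagent. Cells were enriched on streptavidin microbeads and then FACS-sorted, with low and high (top ~1%) gates set on anti-HA fluorescence for expression and streptavidin fluorescence for reagent binding. Each polyreactivity label reflects the gate a clone came from. Genes were amplified by colony PCR, sequenced by MiSeq 2 × 250 and filtered by CDR length.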

Sequence | polyreactivity (PSR sort gate)
QVQLVESGAGLVQAGGSLRLSCAASGSIFGFYAMGWYRQAPGKERELVASISSSGDSTYYADSVKGRFTISRDNAKYTVYLPMNSLKPEDTAVYYCAAVVYDIYGYEFDYWGLGTQVTVSS | low polyreactivity
QVQLVESGGGLVQAGGSLRLSCAASGRIFETNGMGWYRQAPGKERELVAAITRSGGVRTYADSVKGRFTISRDNAKNTVYLQMNSLKPEDTAVYYCNKRSILGRGTPSPYKRMYHWGQGTQVTVSS | low polyreactivity
QVQLVESGGGLVQAGGSLRLSCAASGLIFWYYTMGWYRQAPGKESELVAAITIGGSTYYADSVKGRFTISRDNAKNTVYLQMNSLKPEDTAVYYCNTRRGRSPGGRYEYDYWGQGTQVTVSS | low polyreactivity
QVQLVESGGGLVQAGGSLRLSCAASGRTLYGNAMGWYRQAPGKEREFVAAITRSGGTTYYADSVKGRFTISRDNAKNTVYLQMNSLKPEDTAVYYCATAFRGYTGLFYWGQGTQVTVSS | high polyreactivity
QVQLVESGGGLVQAGGSLRLSCAASGSTIFLYDMGWYRQAPGKESELVAAITISGGSTYYADSVKGRFTISRDNAKNTVDLQMNSLKPEDTAVYYCAADRQWISLFGYPDGYDYWGQGTQVTVSS | high polyreactivity
QVQLVESGGGLVQAGGSLRLSCAASGRIFWDIDMGWYRQAPGKEWELVAAISRRGGSTSYADSVKGRFTISRDNAKTTVYLQINSLKPEDTAVYYCNVRTRWTRVRRYDYWGQGTQVTVSS | high polyreactivity
QVQLVESGGGLVQAGGSLRLSCDASGFISFGNAMGWNRQAPRKERELVAGISRSGGSTYYADSVKGRFTISRDNAKNTVYLQMISLKPEDTAVYYCATRVAIYPYRFDYWGQGTQVTVSS | high polyreactivity
QVQLVESGGGLVQAGGSLRLSCAASGRIFYYYAMGWYRQAPGKEREIVAAISASGGSTYADSVKGRFTISRDNAKNTVYLQMNSLKPEDTAVYYCATVYYYTYAWLDLYGGYTFEYWGQGTQVTVSS | low polyreactivity
QVQLVESGGGLVQAGGSLRLSCAASGSILSFYAMGWYRQAPGKERELVATISRRGGSTYYADSVKGRFTISRDNAKNTVYLQMNSLKPEDTAVYYCNKPGLSAWTQSSQYEYDYWGQGTQVTVSS | high polyreactivity
QVQLVDSGGGLVQAGGSLRLSCAASGRIFYAYDMGWYRQAPGKERELVADITSSGSTNYADSVKGRFTISRDNAKNTVYLQMNSLKPEDTAVYYCNTEPSGYESGYWGQGTQVTVSS | low polyreactivity
QVQLVESCGGLVQAGGSHRLSCAASGRTFRYYAMGWYRQAPWKERELVAAIRRGGSTTYADSVKVRFTISRDNAKNTVYLQMNSLKPEDTAVYYCAARYPGTRGDGYWGQGTQVTVSS | high polyreactivity
QVQLVESVGGLVQAGGSLRLSCAASGITFRWNAMGRYRQATGKERELVAAIRRSGRTYYADSVKGRFTISRDNAKNTVYLQMNSLKPEDTAVYYCAAVSGYRSSKYDYWGQGTQVTVSS | high polyreactivity
KVQLVESGGGLVQAGGSLRLSCPASGITFYRYVMGWYRQAPGTERELVAAISSGGRTYYADSVKGRFTISRDNAKNTVYLQMNSLKPEDNAVYYCNRAAFQTRYESWGQGTQVTVSS | high polyreactivity
QVQLVESGGGLVQAGGSLRLSCAASGFTFRAYAMGWYRQAPGKEREFVAAISRRGGSTSYADSVKGRFTISRDIAKNTVYLQMNSQKPEDTSVYYCAADVQEEYDYWGQGTQVTVSS | high polyreactivity
QVQLVESGGGLVQAGGSIRLSCAASGNTFRWYAMGWYRQAPGKEREFVAAISSSGGSTYYADSVKGRFTISRDNAKNTVYLQMNSLKPEDTAVYYCNAASVTRHVSFATDYEYWGQGTQVTVSS | high polyreactivity
QVQLVESGGGLVQAGGSLRLICAASGFTFSQYAMGWYREAPGKERELVAAISWNGGSTYYADSVKGRFTISRDNAKNTVYLQMNSLKPEDTAVYYWNRRWPFVRFYYWGQGTQVTVSS | high polyreactivity
QVQLVETGGGLVQAGGSLRLSCAASGSIFIWYAMGWYRQAPGKERELVAAIRSGGSTYYADSVKGRFTISRDNAKNTVYFQMNRLKPEDTAVYYCAKVLSWRGNRYNYWGQGTQVTVSS | low polyreactivity
QVQLVESGGGLVQAGGSLRLSCAASGSTFVGYAMGWYRQAPGKVRELVADITSGGGITYYADSVKGRFTISRDNAKNTVYLQMNSLKPDDTAVYYCAPGRPRPHWWSLDYYYWGQGTQVTVSS | low polyreactivity
QVQLVESGGGLVQAGGSLRLRCAASGTFYLYAMGWYRQAPWKQRELVAAISGSGSTNYADSVKGRFTISRDNAKNTVYLQMNSLKPEDTAVYYCAAYQRYDSLTGARYEYDYWGQGTQVTVSS | low polyreactivity
QVQLVESGRGLVQAGGSLRLSCAASGSTFQVYTMGWYRQAPGKEREFVASISWSGSSTYYADSVKGRFTISRDNAKNTVYLQMNSLKPEDTAVYYCAARVGSTYRRYYYWGQGTQVTVSS | high polyreactivity
QVQLVESGGRLVQAGGSLRLSCAASGRTFYRYAMGWYRQAPGKERELVAAITWSGGSTYYADSVKGRFTTSRDNAKNTVYLQMNSLKPEDTAVYYCAATKRRFVKFDYWGQGTQVTVSS | low polyreactivity
QVQLVESGGGLVQAGGSLRLSCAASGSTSWLNAMGWYRQATGKERELVAAISVNTGSTYYADSVKGRFTISRDNAKNTVYLQMNSLKPEDTAVYYCAARGRGHGTTPNDYWGQGTQVTVSS | high polyreactivity

Sequence | polyreactivity (PSR sort gate)
QVQLVESGGGLVQAGGILRLSCAASGSIFSQYAMGWYRQAPGKERELVATISWNGGRTYYADSVKGRFTISRDNAKNTVYLELNSLKPEDTAVYYCAARYGGVPYYYWGQGTQVTVSS | high polyreactivity
QVQLVESGGGLVQAGGSHRLRCAAYGFIFIYAMGRYRQAPGKQRELVASIESGVSTDYADSVKGRFTISRDNAKNSVYFQMNSLKQEDTAVYYCAADQWSSLNYDYWGQGSQVTVSS | low polyreactivity
QVQLVESGGGLVQAGGSLRLSCAASGFIFGYNAMGWYRQAPGKERELVAAISGSGGRTYYADSVKGRFTISRDNAKNTVYLQMNSLIPEDTAVYYCAVADRRGLGYWGQGTQVTVSS | high polyreactivity
QVQLVESGGGLVQAGGSLRLSCAASGAIFQPYGMGGYSQAPGKERELVAAISRGGTTYYADSVTGRFTISRANAKNTDYLQMNSLKPEETAVYYCAVKGYRYGTRYDYRGQGTQVTVSS | high polyreactivity
QVQLVQSGGGLVQAGGSLRLSCAASGSTFYYYGMRSYREAPGKEMELFASISWRGGSTYSADSVKGRYTISRDNAKNTVYLQMNSLKPEDTAVYYCAASRRPWYRAVTWNAGDYWGQGTQVTVSS | high polyreactivity
QVQLVESGGGLVQAGGSLRLSCAASGRTFVKNTMGWYRQATGKERELVAAISSSGGSTYYADSVKGRFTISRHNAKNTVYLQMNSLNPEDTAVYFCAVSYPYKHAGGWYAYNYWGQGTQVTVSS | high polyreactivity
QVQLVESVGGLVQAGGSLRLSCAASGRTFRTYTMGWYRQAPGKERGLVAAITSTGSTYYADSVKGRFTISRDNAKNTVYLQMNSLKPEDTAVYYCNVVRRLRPYRGTGPNLEYYYWGQGTQVTVSS | high polyreactivity
QVQLVESGGGLVQAGGSLRLSCASSGSTFVYNVMGRYRQAPGKERDLVAAISRSGGSTYYADSVKGRFTISRDNAKNSVYLQMNSLKPEDTAVYYCAKRVYGWWYDHWGQGTQVTVSS | high polyreactivity
QVQLVESGGGLVQAGGSLRLSCAASGRNFSANAMGWYRQAPGKEREMVATISSGGRTNYADSVKGRFTISRDNAKNTVYVQMNSLKPEDTAVYYCAKRGPYNRWYGRYDYWGQGTQVTVSS | low polyreactivity
QVQLVESGGGLVQAGGSLRLSCAASGSTFETNAMGLYRQATRKERELVAAISYNGGSTYADSVKGRFTISRDNAKNTVYLHMNSLKPEDSAVYYCAAVRSPRGLGGYWGQGTQVTVAS | low polyreactivity
QVQLVESGGGLVQAGGSLRLSCAASGRIFGYYAMGWYRQAPGKERELVAAISTRGTSTYYADSVKGRFTISRDNAKNTVYLQMNSLKPEDTAVYYCARGFPPYRGTHMNYWGQGTQVTVSS | high polyreactivity
QVQLVESGGGLVQAGGSLRLSCAASGLIFQWYAMGWYRQAPGKERELVAAITGSGGSTYYADSVKGRFTISRDNAKNTVYLQMNSLKPEDTAVYYCNAGASRRYGYWGQGTQVTVSS | high polyreactivity
QVQLVESGGGLVQAGGRLRLSCAASGFTFGWNAMGWYRQAPGKEREMVASIYSGDSTYYADSVKGRFTISRDNAKNTVYLQMNSLKPEDTAVYYCATAPYVTSRRYGPYEYWGQGTQVTVSS | low polyreactivity
QVQLQESGGGLVQAGDSQRLSCAASGNSFRFTHMGWYRQAPGKERELVAASNAGSTTYYADSVKGRFTISRDNAKNTVYLQMKSLKPEDTAVYYCAVYYLGSGTFGYWGQGAQVTVSS | high polyreactivity
QVQRVESAGRLVQAGGSLRLSCAPSGRTFPGNDMGWYRQAPGKESEFVAAISSDDSTYYADSVKGRFTISRDNAKNTVYLQMNSLKPEDTGVYYSNAEYFEGYIGVPGSYWPYEYWGQGNQVTVSS | low polyreactivity
QVQLVESGGGLVQAGGSLRLSCSASGSTFPSNAMGWYRQAPGKERELVAAIRGRGGSTYYADSVKGRFTISRDNAKNTVYLQMNSLKPEDTAVYYCAKKVRSYVRWEYDYWGQGTQVTVSS | low polyreactivity
QVQLVESGGGLVQAGGSLRLSCAASGLIFRAYGMGWYIQAPGKERELLAAITWNGGSTNYADSVKGRFTISRDNAKNTVYLQMNSLKPEDTAVYYCAARLAGRGSSSSRVVRTGGYWGQGTQVTVSS | high polyreactivity
QVQLVESGGGLVQAGGSLRLSCAASGSTFKAYAMGLYRPAPGKERELVAAITRRGTSTYYADSVKGRFTISRDNAKNTVYLQMNSLKPEDTAVYYCNAKYVSDRSSAVSFDYWGQGTQVTVSS | low polyreactivity
QVQLVESGGALVHAGGSLRLSCAASGSIFYQYDMGWYRQAPLKERELVAAISRSGTRTYYEDSVKGRFTISRDNAKNTVYLKMNSLKPEDTAVYYCARRYRSGYGYWGQGTQVTVSS | high polyreactivity
QVQLVESGGGLVQAGGSLRLSCAASGSIFDVYAMGWYRQAPGKERELVAGISRSGGSTYYADSVKGRFTISRDNAKNTVYLQMNSLKPEDTAVYYCAARYTYYRGRYDYWGQGTQVTVSS | low polyreactivity
QVQLVESGGGLVQAGGSLRLSCAASGSIFYGYTMGWYRQEPRKERELVAAIRKSGGSTNYADSVKGRFTISRDTAKNTVYLQMNSLKPEDTALYNCAADYYRRRGYYWGQGTQVTVSS | high polyreactivity
